± gives the standard deviation of the averaged measurements.
B1: library; a variant is named by its letters at N, in order (parent)
chain: GCUGUCACCGAGAAACUGUGAAGUAUAUCUUAAACCUGGGCACUUAAAAGAUAUAUGGAGUUAGUAGUGCAACCUGCUCGGUCUGAUGAGUCCNNNNNNGGACGAAACAGC

Experiments:
cyclic di-GMP [1] = variants of: B1; assay: normalized RNA/DNA level without ligand (relative to sTRSVctl = 100) (log10 (% of sTRSVctl)); HEK293T; ligand: cyclic di-GMP (c-di-GMP-II aptamer); higher = less ribozyme self-cleavage, higher mRNA level; conditions: reporter: mCherry (pCS4076), ligand present: no
Summary of the method: (§1)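 Ribozyme switch library plasmids with mCherry reporters (eGFP in certain ligand experiments) went into HEK293T cells at 4 µg per 6-well well. Where ligand was used, it was applied 1 h before transfection, and total RNA was extracted with EDTA 72 h later for reverse transcription, amplification, barcoding and sequencing. RNA level is the RNA-to-DNA read ratio normalized to a spiked-in non-cleaving sequence or to the leading sequences, then scaled and log-transformed. Scaling was ×100 with log10, the leading set comprised 25 sequences, and the cutoff was ≥100 DNA reads.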

cyclic di-GMP [2] = variants of: B1; assay: normalized RNA/DNA level with ligand (relative to sTRSVctl = 100) (log10 (% of sTRSVctl)); HEK293T; ligand: cyclic di-GMP (c-di-GMP-II aptamer); ligand concentration (+) RNA-Seq: 1 mM; higher = less ribozyme self-cleavage, higher mRNA level; conditions: reporter: mCherry (pCS4076), ligand present: yes
Summary of the method: as §1

Variant | normalized RNA/DNA level without ligand (log10) (cyclic di-GMP [1]) | normalized RNA/DNA level with ligand (log10) (cyclic di-GMP [2])
GCUGUCACCGAGAAACUGUGAAGUAUAUCUUAAACCUGGGCACUUAAAAGAUAUAUGGAGUUAGUAGUGCAACCUGCUCGGUCUGAUGAGUCCGUAGGGGGACGAAACAGC [GUAGGG] | 1.55 ± 0.11 | 1.71 ± 0.025
GCUGUCACCGAGAAACUGUGAAGUAUAUCUUAAACCUGGGCACUUAAAAGAUAUAUGGAGUUAGUAGUGCAACCUGCUCGGUCUGAUGAGUCCGUAGGUGGACGAAACAGC [GUAGGU] | 1.6 ± 0.028 | 1.8 ± 0.1
GCUGUCACCGAGAAACUGUGAAGUAUAUCUUAAACCUGGGCACUUAAAAGAUAUAUGGAGUUAGUAGUGCAACCUGCUCGGUCUGAUGAGUCCGUAGGCGGACGAAACAGC [GUAGGC] | 1.6 ± 0.064 | 1.78 ± 0.048
GCUGUCACCGAGAAACUGUGAAGUAUAUCUUAAACCUGGGCACUUAAAAGAUAUAUGGAGUUAGUAGUGCAACCUGCUCGGUCUGAUGAGUCCAUAGGCGGACGAAACAGC [AUAGGC] | 1.55 ± 0.023 | 1.76 ± 0.18
GCUGUCACCGAGAAACUGUGAAGUAUAUCUUAAACCUGGGCACUUAAAAGAUAUAUGGAGUUAGUAGUGCAACCUGCUCGGUCUGAUGAGUCCGUAUAAGGACGAAACAGC [GUAUAA] | 1.501 ± 0.012 | 1.69 ± 0.088
GCUGUCACCGAGAAACUGUGAAGUAUAUCUUAAACCUGGGCACUUAAAAGAUAUAUGGAGUUAGUAGUGCAACCUGCUCGGUCUGAUGAGUCCUUAUAAGGACGAAACAGC [UUAUAA] | 1.6409 ± 0.0011 | 1.81 ± 0.13
GCUGUCACCGAGAAACUGUGAAGUAUAUCUUAAACCUGGGCACUUAAAAGAUAUAUGGAGUUAGUAGUGCAACCUGCUCGGUCUGAUGAGUCCUUAGGUGGACGAAACAGC [UUAGGU] | 1.7 ± 0.042 | 1.86 ± 0.1
GCUGUCACCGAGAAACUGUGAAGUAUAUCUUAAACCUGGGCACUUAAAAGAUAUAUGGAGUUAGUAGUGCAACCUGCUCGGUCUGAUGAGUCCUUAGGGGGACGAAACAGC [UUAGGG] | 1.65 ± 0.018 | 1.8 ± 0.12
GCUGUCACCGAGAAACUGUGAAGUAUAUCUUAAACCUGGGCACUUAAAAGAUAUAUGGAGUUAGUAGUGCAACCUGCUCGGUCUGAUGAGUCCUUAGGCGGACGAAACAGC [UUAGGC] | 1.7 ± 0.021 | 1.83 ± 0.14
GCUGUCACCGAGAAACUGUGAAGUAUAUCUUAAACCUGGGCACUUAAAAGAUAUAUGGAGUUAGUAGUGCAACCUGCUCGGUCUGAUGAGUCCCUAGGGGGACGAAACAGC [CUAGGG] | 1.62 ± 0.022 | 1.78 ± 0.12
GCUGUCACCGAGAAACUGUGAAGUAUAUCUUAAACCUGGGCACUUAAAAGAUAUAUGGAGUUAGUAGUGCAACCUGCUCGGUCUGAUGAGUCCCUAGGUGGACGAAACAGC [CUAGGU] | 1.7 ± 0.026 | 1.85 ± 0.14
GCUGUCACCGAGAAACUGUGAAGUAUAUCUUAAACCUGGGCACUUAAAAGAUAUAUGGAGUUAGUAGUGCAACCUGCUCGGUCUGAUGAGUCCCUAGGCGGACGAAACAGC [CUAGGC] | 1.74 ± 0.03 | 1.89 ± 0.11
GCUGUCACCGAGAAACUGUGAAGUAUAUCUUAAACCUGGGCACUUAAAAGAUAUAUGGAGUUAGUAGUGCAACCUGCUCGGUCUGAUGAGUCCGUAGUUGGACGAAACAGC [GUAGUU] | 1.61 ± 0.043 | 1.75 ± 0.061
GCUGUCACCGAGAAACUGUGAAGUAUAUCUUAAACCUGGGCACUUAAAAGAUAUAUGGAGUUAGUAGUGCAACCUGCUCGGUCUGAUGAGUCCGUAGUCGGACGAAACAGC [GUAGUC] | 1.37 ± 0.12 | 1.55 ± 0.054
GCUGUCACCGAGAAACUGUGAAGUAUAUCUUAAACCUGGGCACUUAAAAGAUAUAUGGAGUUAGUAGUGCAACCUGCUCGGUCUGAUGAGUCCGUAGUGGGACGAAACAGC [GUAGUG] | 1.744 ± 0.0031 | 1.81 ± 0.12
GCUGUCACCGAGAAACUGUGAAGUAUAUCUUAAACCUGGGCACUUAAAAGAUAUAUGGAGUUAGUAGUGCAACCUGCUCGGUCUGAUGAGUCCAUAUAAGGACGAAACAGC [AUAUAA] | 1.5 ± 0.042 | 1.67 ± 0.13
GCUGUCACCGAGAAACUGUGAAGUAUAUCUUAAACCUGGGCACUUAAAAGAUAUAUGGAGUUAGUAGUGCAACCUGCUCGGUCUGAUGAGUCCAUAUACGGACGAAACAGC [AUAUAC] | 1.68 ± 0.019 | 1.82 ± 0.12
GCUGUCACCGAGAAACUGUGAAGUAUAUCUUAAACCUGGGCACUUAAAAGAUAUAUGGAGUUAGUAGUGCAACCUGCUCGGUCUGAUGAGUCCAUAGUCGGACGAAACAGC [AUAGUC] | 1.675 ± 0.0068 | 1.83 ± 0.088
GCUGUCACCGAGAAACUGUGAAGUAUAUCUUAAACCUGGGCACUUAAAAGAUAUAUGGAGUUAGUAGUGCAACCUGCUCGGUCUGAUGAGUCCAUAGUGGGACGAAACAGC [AUAGUG] | 1.56 ± 0.068 | 1.71 ± 0.083
GCUGUCACCGAGAAACUGUGAAGUAUAUCUUAAACCUGGGCACUUAAAAGAUAUAUGGAGUUAGUAGUGCAACCUGCUCGGUCUGAUGAGUCCUUAGUCGGACGAAACAGC [UUAGUC] | 1.72 ± 0.048 | 1.83 ± 0.086
GCUGUCACCGAGAAACUGUGAAGUAUAUCUUAAACCUGGGCACUUAAAAGAUAUAUGGAGUUAGUAGUGCAACCUGCUCGGUCUGAUGAGUCCUUAGUAGGACGAAACAGC [UUAGUA] | 1.609 ± 0.0054 | 1.79 ± 0.13
GCUGUCACCGAGAAACUGUGAAGUAUAUCUUAAACCUGGGCACUUAAAAGAUAUAUGGAGUUAGUAGUGCAACCUGCUCGGUCUGAUGAGUCCUUAGUUGGACGAAACAGC [UUAGUU] | 1.77 ± 0.019 | 1.86 ± 0.14
GCUGUCACCGAGAAACUGUGAAGUAUAUCUUAAACCUGGGCACUUAAAAGAUAUAUGGAGUUAGUAGUGCAACCUGCUCGGUCUGAUGAGUCCCUAGUCGGACGAAACAGC [CUAGUC] | 1.75 ± 0.039 | 1.83 ± 0.055
GCUGUCACCGAGAAACUGUGAAGUAUAUCUUAAACCUGGGCACUUAAAAGAUAUAUGGAGUUAGUAGUGCAACCUGCUCGGUCUGAUGAGUCCCUAGUAGGACGAAACAGC [CUAGUA] | 1.56 ± 0.046 | 1.7 ± 0.04
GCUGUCACCGAGAAACUGUGAAGUAUAUCUUAAACCUGGGCACUUAAAAGAUAUAUGGAGUUAGUAGUGCAACCUGCUCGGUCUGAUGAGUCCCUAGUGGGACGAAACAGC [CUAGUG] | 1.529 ± 0.0021 | 1.69 ± 0.12
GCUGUCACCGAGAAACUGUGAAGUAUAUCUUAAACCUGGGCACUUAAAAGAUAUAUGGAGUUAGUAGUGCAACCUGCUCGGUCUGAUGAGUCCCUAGUUGGACGAAACAGC [CUAGUU] | 1.739 ± 0.0023 | 1.89 ± 0.06

From the supplement of paper PMC6757056
